# Measured values taken from paper PMC4357725 (Nucleic Acids Research, 2015).
# B1: ϕ29 TP mutant K32A/K33A/K34A (natural protein, bacteriophage ϕ29, UniProt P03681 1-266, looked up)
# chain: MARSPRIRIKDNDKAEYARLVKNTKAKIARTAAAYGVDLTAEIDIPDLDSFETRAQFNKWKEQASSFTNRANMRYQFEKNAYGVVASKAKIAEIERNTKEVQRLVDEKIKAMKDKEYYAGGKPQGTIEQRIAMTSPAHVTGINRPHDFDFSKVRSYSRLRTLEESMEMRTDPQYYEKKMIQLQLNFIKSVEGSFNSFDAADELIEELKKIPPDDFYELFLRISEISFEEFDSEGNTVENVEGNVYKILSYLEQYRRGDFDLSLKGF
# notes: terminal protein (TP) of bacteriophage ϕ29 with K32A, K33A and K34A
# Molecular target: T1, ϕ29 DNA polymerase, wild type (bacteriophage ϕ29, UniProt P03680 1-575)
# T1 construct: DNA polymerase of bacteriophage ϕ29, wild type; 66 kDa; also called viral DNA polymerase
# T1 sequence (looked up): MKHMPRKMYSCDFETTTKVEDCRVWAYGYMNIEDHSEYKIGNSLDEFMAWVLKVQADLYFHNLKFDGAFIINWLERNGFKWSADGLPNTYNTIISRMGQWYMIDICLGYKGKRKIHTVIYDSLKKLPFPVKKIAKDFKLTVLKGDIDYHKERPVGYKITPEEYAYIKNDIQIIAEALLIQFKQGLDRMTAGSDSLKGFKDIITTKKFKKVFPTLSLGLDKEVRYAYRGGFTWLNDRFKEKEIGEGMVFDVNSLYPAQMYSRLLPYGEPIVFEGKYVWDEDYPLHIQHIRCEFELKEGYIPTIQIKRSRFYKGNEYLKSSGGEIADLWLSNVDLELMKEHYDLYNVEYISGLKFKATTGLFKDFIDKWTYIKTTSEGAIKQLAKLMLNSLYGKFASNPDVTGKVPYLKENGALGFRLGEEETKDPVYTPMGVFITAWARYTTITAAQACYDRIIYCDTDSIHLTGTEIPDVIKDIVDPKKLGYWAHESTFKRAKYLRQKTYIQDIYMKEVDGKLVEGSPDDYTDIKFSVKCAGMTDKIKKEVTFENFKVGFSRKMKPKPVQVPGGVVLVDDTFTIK
# Assay: co-sedimentation; glycerol gradient sedimentation of DNA polymerase with TP N-terminal mutants (Supplementary Figure S2)
# Conditions: both partners purified
binder,measurement,value
B1,binding result,binds
